In PMC12371506 (ACS Bio & Med Chem Au, 2025):
*: point of attachment. AMC = Cc1cc(=O)oc2cc(N*)ccc12; CH2Cl = ClC*

T1: caspase-1 (Homo sapiens, UniProt P29466)
T1 sequence (P29466 120-297 limits assumed): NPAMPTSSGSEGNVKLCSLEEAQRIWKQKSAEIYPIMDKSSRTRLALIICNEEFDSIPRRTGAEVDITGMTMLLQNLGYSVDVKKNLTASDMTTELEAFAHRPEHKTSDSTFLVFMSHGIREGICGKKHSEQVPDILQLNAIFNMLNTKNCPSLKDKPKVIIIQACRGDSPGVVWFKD
T1 sequence (P29466 317-404 limits assumed): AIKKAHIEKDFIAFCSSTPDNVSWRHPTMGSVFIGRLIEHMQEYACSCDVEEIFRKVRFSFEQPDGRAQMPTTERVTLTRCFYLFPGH

T2: caspase-6 (Homo sapiens, UniProt P55212)
T2 sequence (P55212 24-179 limits assumed): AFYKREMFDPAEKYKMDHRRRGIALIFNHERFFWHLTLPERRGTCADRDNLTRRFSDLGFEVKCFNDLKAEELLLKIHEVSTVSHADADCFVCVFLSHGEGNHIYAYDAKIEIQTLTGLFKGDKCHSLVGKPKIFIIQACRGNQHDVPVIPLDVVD
T2 sequence (P55212 194-293 limits assumed): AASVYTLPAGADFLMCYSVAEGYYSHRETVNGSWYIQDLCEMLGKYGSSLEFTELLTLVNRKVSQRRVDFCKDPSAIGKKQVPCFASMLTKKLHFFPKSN

T3: caspase-9 (full-length) (Homo sapiens, UniProt P55211)
T3 sequence (P55211 1-315 limits assumed): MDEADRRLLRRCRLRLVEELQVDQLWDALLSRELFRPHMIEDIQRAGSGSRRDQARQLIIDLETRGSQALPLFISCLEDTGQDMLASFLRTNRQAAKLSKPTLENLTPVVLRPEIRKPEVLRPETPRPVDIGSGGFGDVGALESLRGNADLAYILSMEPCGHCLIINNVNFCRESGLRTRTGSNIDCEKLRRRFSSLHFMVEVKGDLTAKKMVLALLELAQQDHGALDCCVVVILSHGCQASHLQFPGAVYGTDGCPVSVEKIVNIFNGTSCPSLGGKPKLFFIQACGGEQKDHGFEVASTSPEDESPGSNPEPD
T3 sequence (P55211 331-416 limits assumed): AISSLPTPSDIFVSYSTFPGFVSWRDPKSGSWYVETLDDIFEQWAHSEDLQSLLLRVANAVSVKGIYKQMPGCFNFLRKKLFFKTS

T4: caspase-7 (Homo sapiens, UniProt P55210)
T4 sequence (P55210 24-198 limits assumed): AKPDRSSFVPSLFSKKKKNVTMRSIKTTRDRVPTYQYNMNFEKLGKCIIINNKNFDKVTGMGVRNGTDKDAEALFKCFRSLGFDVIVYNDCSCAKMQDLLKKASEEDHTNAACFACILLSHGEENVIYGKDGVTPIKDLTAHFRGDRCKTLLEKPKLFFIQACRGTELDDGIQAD
T4 sequence (P55210 207-303 limits assumed): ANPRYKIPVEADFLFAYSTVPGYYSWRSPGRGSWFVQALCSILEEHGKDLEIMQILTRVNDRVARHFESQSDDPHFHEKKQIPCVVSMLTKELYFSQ

T5: caspase-10 (Homo sapiens, UniProt Q92851)
T5 sequence (Q92851 220-415 limits assumed): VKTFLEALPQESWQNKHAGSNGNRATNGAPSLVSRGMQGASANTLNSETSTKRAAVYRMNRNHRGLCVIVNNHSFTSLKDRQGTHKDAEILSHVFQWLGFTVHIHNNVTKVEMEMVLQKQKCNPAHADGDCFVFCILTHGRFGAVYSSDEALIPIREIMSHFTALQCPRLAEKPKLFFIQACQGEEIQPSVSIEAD
T5 sequence (Q92851 416-521 limits assumed): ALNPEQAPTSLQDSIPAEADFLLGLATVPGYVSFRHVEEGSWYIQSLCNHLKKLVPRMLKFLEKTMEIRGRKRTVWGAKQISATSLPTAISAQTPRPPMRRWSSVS

T6: caspase-3 (Homo sapiens, UniProt P42574)
T6 sequence (P42574 29-175 limits assumed): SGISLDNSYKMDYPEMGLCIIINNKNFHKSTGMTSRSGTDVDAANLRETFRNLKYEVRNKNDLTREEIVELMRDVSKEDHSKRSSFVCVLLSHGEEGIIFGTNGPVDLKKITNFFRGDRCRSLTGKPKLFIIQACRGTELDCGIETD
T6 sequence (P42574 176-277 limits assumed): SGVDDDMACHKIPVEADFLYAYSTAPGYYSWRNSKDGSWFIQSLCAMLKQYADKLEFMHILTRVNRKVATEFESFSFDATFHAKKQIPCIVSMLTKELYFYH

T7: caspase-4 (Homo sapiens, UniProt P49662)
T7 sequence (P49662 81-270 limits assumed): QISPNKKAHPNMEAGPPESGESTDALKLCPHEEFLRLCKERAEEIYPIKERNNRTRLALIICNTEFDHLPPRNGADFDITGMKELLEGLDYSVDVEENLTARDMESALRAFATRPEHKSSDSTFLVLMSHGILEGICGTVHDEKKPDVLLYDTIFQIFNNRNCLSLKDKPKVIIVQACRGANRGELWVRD
T7 sequence (P49662 290-377 limits assumed): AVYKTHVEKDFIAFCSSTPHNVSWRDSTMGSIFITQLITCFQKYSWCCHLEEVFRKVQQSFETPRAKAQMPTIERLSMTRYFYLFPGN

T8: caspase-11 (Mus musculus, UniProt P70343)
T8 sequence (P70343 81-266 limits assumed): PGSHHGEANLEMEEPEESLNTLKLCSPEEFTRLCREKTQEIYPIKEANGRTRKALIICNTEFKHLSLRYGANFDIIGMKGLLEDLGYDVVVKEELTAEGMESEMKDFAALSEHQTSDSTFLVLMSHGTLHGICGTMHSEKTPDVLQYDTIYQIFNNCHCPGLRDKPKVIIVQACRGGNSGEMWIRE
T8 sequence (P70343 286-373 limits assumed): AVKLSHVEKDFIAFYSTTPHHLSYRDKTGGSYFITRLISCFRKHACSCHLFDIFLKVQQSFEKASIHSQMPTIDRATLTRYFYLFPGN

T9: caspase-5 (Homo sapiens, UniProt P51878)
T9 sequence (P51878 137-327 limits assumed): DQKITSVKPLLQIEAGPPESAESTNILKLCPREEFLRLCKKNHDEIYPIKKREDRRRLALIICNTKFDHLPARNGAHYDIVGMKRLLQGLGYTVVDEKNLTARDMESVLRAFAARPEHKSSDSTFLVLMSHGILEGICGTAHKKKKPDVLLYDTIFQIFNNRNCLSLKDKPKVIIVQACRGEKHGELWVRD
T9 sequence (P51878 347-434 limits assumed): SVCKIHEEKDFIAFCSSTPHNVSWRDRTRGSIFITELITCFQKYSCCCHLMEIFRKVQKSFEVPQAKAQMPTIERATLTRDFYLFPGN

B1: N-acetyl-Leu-Glu-Ser-Asp-chloromethylketone (peptide)
peptide: Ac-LESD-CH2Cl
SMILES: CC(=O)N[C@@H](CC(C)C)C(=O)N[C@@H](CCC(=O)O)C(=O)N[C@@H](CO)C(=O)N[C@@H](CC(=O)O)C(=O)CCl

Tests used:
caspase-1 = molecular target: T1, caspase-1; assay: In vitro substrate kinetics, caspase-1; format: biochemical; settings: caspase-1, 0.25 activity units/μL
caspase-6 = molecular target: T2, caspase-6; assay: In vitro substrate kinetics, caspase-6; format: biochemical; settings: caspase-6, 0.25 activity units/μL
caspase-9 (full-length) = molecular target: T3, caspase-9 (full-length); assay: In vitro substrate kinetics, caspase-9; settings: caspase-9, 1 activity unit/μL, different preparation
caspase-7 = molecular target: T4, caspase-7; assay: In vitro substrate kinetics, caspase-7; format: biochemical; settings: caspase-7, 0.25 activity units/μL
caspase-8 = caspase-8 (Homo sapiens, UniProt Q14790); assay: In vitro substrate kinetics, caspase-8; format: biochemical; settings: for K M / Relative k cat/K M / V max: caspase-8, 0.25 activity units/μL
Sequence of caspase-8 (Q14790 217-374 limits assumed): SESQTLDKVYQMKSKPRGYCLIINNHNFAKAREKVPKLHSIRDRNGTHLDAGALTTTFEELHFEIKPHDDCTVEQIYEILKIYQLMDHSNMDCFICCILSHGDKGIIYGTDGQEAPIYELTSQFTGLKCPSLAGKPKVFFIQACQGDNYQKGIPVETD
Sequence of caspase-8 (Q14790 385-479 limits assumed): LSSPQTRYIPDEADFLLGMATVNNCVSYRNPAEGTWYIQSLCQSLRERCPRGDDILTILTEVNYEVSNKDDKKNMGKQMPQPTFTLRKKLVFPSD

caspase-10 = molecular target: T5, caspase-10; assay: In vitro substrate kinetics, caspase-10; format: biochemical; settings: for K M / Relative k cat/K M / V max: caspase-10, 0.25 activity units/μL
caspase-3 = molecular target: T6, caspase-3; assay: In vitro substrate kinetics, caspase-3; format: biochemical; settings: caspase-3, 0.25 activity units/μL
caspase-4 = molecular target: T7, caspase-4; assay: In vitro substrate kinetics, caspase-4; format: biochemical; settings: caspase-4, 0.25 activity units/μL
caspase-11 = molecular target: T8, caspase-11; assay: In vitro substrate kinetics, caspase-11; format: biochemical
caspase-5 = molecular target: T9, caspase-5; assay: In vitro substrate kinetics, caspase-5; format: biochemical
[1] = molecular target: Caspase-9 (full-length) (human), (recombinant) (human) (UniProt P55211)
[2] = mouse caspase-11, 0.25 activity units/μL
[3] = caspase-5, 0.25 activity units/μL

Molecule | K M (caspase-1) | Relative k cat/K M (caspase-1) | V max (caspase-1) | Relative k cat/K M (caspase-6) | Relative k cat/K M (caspase-9 (full-length)) | Relative k cat/K M (caspase-7) | K M (caspase-8) | Relative k cat/K M (caspase-8) | V max (caspase-8) | K M (caspase-10) | Relative k cat/K M (caspase-10) | V max (caspase-10) | Relative k cat/K M (caspase-3) | K M (caspase-4) | Relative k cat/K M (caspase-4) | V max (caspase-4) | other results
Ac-DEVD-AMC [reference compound] | 47.5 ± 30.8 µM | 1.41 ± 0.43 | 44.68 ± 15.51 RFU/min | 13.3 ± 2.24 | did not cleave | 561 ± 81.2 | 0.75 ± 0.12 µM | 310 ± 60.4 | 218.27 ± 2.74 RFU/min | 70.3 ± 14.6 µM | 7.20 ± 1.02 | 476.26 ± 38.71 RFU/min | 482 ± 76.5 | 702 ± 76.3 µM | 1.27 ± 0.18 | 862.73 ± 31.55 RFU/min | K M (caspase-6): 35.3 ± 5.12 µM; V max (caspase-6): 455.67 ± 64.18 RFU/min; K M (caspase-7): 2.36 ± 0.36 µM; V max (caspase-7): 1266.91 ± 38.79 RFU/min; K M (caspase-3): 2.07 ± 0.36 µM; V max (caspase-3): 940.88 ± 31.57 RFU/min
N-acetyl-Leu-Glu-Ser-Asp-aminomethylcoumarin (Ac-LESD-{AMC}; SMILES CC(=O)N[C@@H](CC(C)C)C(=O)N[C@@H](CCC(=O)O)C(=O)N[C@@H](CO)C(=O)N[C@@H](CC(=O)O)C(=O)Nc1ccc2c(C)cc(=O)oc2c1) [Ac-LESD-AMC] | 93.9 ± 6.26 µM | 5.01 ± 0.41 | 465.55 ± 10.25 RFU/min | did not detect processing | 0.15 | did not detect processing | 9.98 ± 0.37 µM | 59.2 ± 3.26 | 590.08 ± 30.37 RFU/min | 87.9 ± 5.38 µM | 10.4 ± 1.30 | 898.63 ± 57.69 RFU/min | did not detect processing | 1867 ± 388 µM | 1.44 ± 0.18 | 2546.06 ± 156.63 RFU/min | K M (caspase-11; [2]): 503 ± 58.4 µM; Relative k cat/K M (caspase-11; [2]): 0.42 ± 0.02; V max (caspase-11; [2]): 211.01 ± 15.01 RFU/min; fold slower cleavage by caspase-11 than by caspase-8 (caspase-11; relative k cat/K M): ~100 fold; K M (caspase-9 (full-length)): 1513.83 ± 441.20 µM; V max (caspase-9 (full-length)): 208.50 ± 45.00 RFU/min; Relative k cat/K M (caspase-9 (full-length); listed as LESD-AMC): 0.15 ± 0.02; catalytic efficiency within x-fold of preferred substrate Ac-WEHD-AMC (caspase-5; caspase-5): ≤ 5 fold; K M (caspase-5; [3]): 154 ± 13.5 µM; Relative k cat/K M (caspase-5; [3]): 4.65 ± 0.43; V max (caspase-5; [3]): 703.19 ± 24.07 RFU/min; catalytic efficiency within x-fold of preferred substrate Ac-LEHD-AMC (caspase-8; caspase-8): ≤ 3 fold; catalytic efficiency within x-fold of preferred substrate Ac-LEHD-AMC (caspase-10; caspase-10): ≤ 3 fold
B1 |  |  |  |  |  |  |  |  |  |  |  |  |  |  |  |  | IC50 of inhibition of caspase activity (rate of cleavage of 200 μM Ac-LEHD-AMC) [1]: 7.45 µM
